By stoichiometry N is commonly meant the number of molecules, sites or subunits per partner or assembly.

The source of these data is publication PMC12373785, “Biochemical characterisation supports a central role for Oep80 from Arabidopsis thaliana in chloroplastic β-barrel protein assembly” (Communications Biology, 2025).

The labels stand for the following.
B1: Oep80^β-6×His (β-barrel domain of Arabidopsis thaliana Oep80, C-terminal 6×His) (domain or fragment, A. thaliana, UniProt Q9C5J8 398-732, looked up)
chain: SGGFSAGGGISSGITSGPLSGLIGSFAYSHRNLFGRNQKLNVSLERGQIDSIFRINYTDPWIEGDDKRTSRSIMVQNSRTPGNLVHGNQPDNSSLTIGRVTAGVEYSRPFRPKWNGTAGLIFQHAGARDEQGNPIIKDFYSSPLTASGKPHDETMLAKLESIYTGSGDQGSTMFAFNMEQGLPVLPEWLCFNRVTGRARKGIHIGPARFLFSLSGGHVVGKFSPHEAFVIGGTNSVRGYEEGAVGSGRSYVVGSGELSFPVRGPVEGVIFTDYGTDMGSGSTVPGDPAGARLKPGSGYGYGLGVRVDSPLGPLRLEYAFNDQHAGRFHFGVGLRN
notes: AtOep80 (also known as Toc75-V), A. thaliana, β barrel domain, residues 398-732; Mostly dimeric in solution by native MS; Cloned in modified Pet15b for the C-terminal 6×His; also called AtOep80 β barrel domain; Toc75-V β-barrel domain; not shown: His6, C-terminal, kept

In data set [1] the target is Oep80^β mutant with the Oep21a β-1 peptide sequence covalently attached via a flexible GS linker (A. thaliana) (UniProt Q9C5J8). In words: native MS; protein alone, buffer-exchanged into 200 mM ammonium acetate pH 8.0, 0.5% C8E4; for the oxidised C587S/S408C/G727C mutant 0.1 mM CuSO4 pre-incubated 4 h before buffer exchange; monomer and dimer charge state series.
Data set [2] deals with the molecule itself. The description is as above.
Data set [3] concerns the target B1. Kind of data set: native MS; 100 µM peptide with 7 µM Oep80^β-6×His in 200 mM ammonium acetate pH 8.0, 0.5% C8E4; peptide-bound relative to unbound species, n = 4. The settings on record: both partners purified.

As to “Oep80^β mutant with the Oep21a β-1 peptide sequence covalently attached via a flexible GS linker (from UniProt Q9C5J8 398-732)”, the stoichiometry N in data set [1] was determined as 2.
As for B1, in data set [2], the “stoichiometry N” value was determined as 2.

B2: untagged Oep80^β (6×His-Oep80^β after thrombin cleavage) (domain or fragment, A. thaliana, UniProt Q9C5J8 398-732, looked up)
chain: SGGFSAGGGISSGITSGPLSGLIGSFAYSHRNLFGRNQKLNVSLERGQIDSIFRINYTDPWIEGDDKRTSRSIMVQNSRTPGNLVHGNQPDNSSLTIGRVTAGVEYSRPFRPKWNGTAGLIFQHAGARDEQGNPIIKDFYSSPLTASGKPHDETMLAKLESIYTGSGDQGSTMFAFNMEQGLPVLPEWLCFNRVTGRARKGIHIGPARFLFSLSGGHVVGKFSPHEAFVIGGTNSVRGYEEGAVGSGRSYVVGSGELSFPVRGPVEGVIFTDYGTDMGSGSTVPGDPAGARLKPGSGYGYGLGVRVDSPLGPLRLEYAFNDQHAGRFHFGVGLRN
notes: AtOep80 (Toc75-V), A. thaliana, β barrel domain, residues 398-732; also called tag-free Oep80^β; not shown: His6, N-terminal, cleaved
Regarding B2, in data set [2], the “stoichiometry N” value is 2.

B3: Oep80^β C587S/S408C/G727C (domain or fragment, A. thaliana, UniProt Q9C5J8 398-732, looked up)
chain: SGGFSAGGGICSGITSGPLSGLIGSFAYSHRNLFGRNQKLNVSLERGQIDSIFRINYTDPWIEGDDKRTSRSIMVQNSRTPGNLVHGNQPDNSSLTIGRVTAGVEYSRPFRPKWNGTAGLIFQHAGARDEQGNPIIKDFYSSPLTASGKPHDETMLAKLESIYTGSGDQGSTMFAFNMEQGLPVLPEWLSFNRVTGRARKGIHIGPARFLFSLSGGHVVGKFSPHEAFVIGGTNSVRGYEEGAVGSGRSYVVGSGELSFPVRGPVEGVIFTDYGTDMGSGSTVPGDPAGARLKPGSGYGYGLGVRVDSPLGPLRLEYAFNDQHAGRFHFCVGLRN
modifications: intramolecular disulfide between the introduced cysteines 408 and 727 (after Cu2+ incubation)
notes: AtOep80, A. thaliana, β barrel domain, residues 398-732, with native cysteine C587 removed and cysteines introduced in the β1 and β-1 strands
For the molecule B3, the “stoichiometry N” value in data set [2] was 2.

B4: 6×His-Oep80^β (N-terminally tagged β-barrel domain of A. thaliana Oep80) (domain or fragment, UniProt Q9C5J8 398-732, looked up)
chain: SGGFSAGGGISSGITSGPLSGLIGSFAYSHRNLFGRNQKLNVSLERGQIDSIFRINYTDPWIEGDDKRTSRSIMVQNSRTPGNLVHGNQPDNSSLTIGRVTAGVEYSRPFRPKWNGTAGLIFQHAGARDEQGNPIIKDFYSSPLTASGKPHDETMLAKLESIYTGSGDQGSTMFAFNMEQGLPVLPEWLCFNRVTGRARKGIHIGPARFLFSLSGGHVVGKFSPHEAFVIGGTNSVRGYEEGAVGSGRSYVVGSGELSFPVRGPVEGVIFTDYGTDMGSGSTVPGDPAGARLKPGSGYGYGLGVRVDSPLGPLRLEYAFNDQHAGRFHFGVGLRN
notes: AtOep80 (Toc75-V), A. thaliana, β barrel domain, residues 398-732; Cloned in Pet28a (N-terminal 6×His, removable by thrombin); also called tagged Oep80^β; 6×His-tagged version; not shown: His6, N-terminal, kept
Turning to B4, the “stoichiometry N” value in data set [2] came out at 2.

B5: Oep21a β-1 wild-type peptide (peptide)
peptide: GKWNVRYDL
notes: also called Oep21a β-signal peptide; Oep21a β-1 w.t; source: synthetic peptide, bought: Proteogenix (99% purity)
Turning to B5, the binding result in data set [3] was “binds”.

B6: Oep21a β-1 D-to-A peptide (peptide)
peptide: GKWNVRYAL
notes: A. thaliana Oep21a β-1, residues 159-167, penultimate residue D changed to A; also called D-to-A mutant; source: synthetic peptide, bought: Proteogenix (99% purity)
As to B6, the binding result in data set [3] is “binds”.

B7: Oep21a β-1 D-to-E peptide (peptide)
peptide: GKWNVRYEL
notes: A. thaliana Oep21a β-1, residues 159-167, penultimate residue D changed to E; also called D-to-E mutation; source: synthetic peptide, bought: Proteogenix (99% purity)
Turning to B7, the binding result in data set [3] was “binds”.
